Experimental data published in patent US20130236458A1 (AbbVie / Abbott, published 2013).

T1: Recombinant Human IL-17 (human, UniProt Q16552 20-155, limits assumed)
T1 construct: bought reagent; also called IL-17A
T1 sequence (looked up): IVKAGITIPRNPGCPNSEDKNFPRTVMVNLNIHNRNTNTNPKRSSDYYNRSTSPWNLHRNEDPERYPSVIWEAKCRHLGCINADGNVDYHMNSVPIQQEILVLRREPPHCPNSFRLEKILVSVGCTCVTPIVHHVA


Columns and labels:
[1] = target: T2, Recombinant Human IL-13 (human, UniProt P35225 35-146, limits assumed); test: SPR (Biacore)
T2 construct: bought reagent
Method: (§1) The BIACORE assay (Biacore, Inc, Piscataway, N.J.) determined the affinity of antibodies or DVD-Ig with kinetic measurements of on-rate and off-rate constants. Binding of antibodies or DVD-Ig proteins to a target antigen (for example, a purified recombinant target antigen) was determined by surface plasmon resonance-based measurements with a Biacore®1000 or 3000 instrument (Biacore® AB, Uppsala, Sweden) using running HBS-EP (10 mM HEPES [pH 7.4], 150 mM NaCl, 3 mM EDTA, and 0.005% surfactant P20) at 25° C. All chemicals were obtained from Biacore® AB (Uppsala, Sweden) or otherwise from a different source as described in the text. For example, approximately 5000 RU of goat anti-mouse IgG, (Fcγ), fragment specific polyclonal antibody (Pierce Biotechnology Inc, Rockford, Ill.) diluted in 10 mM sodium acetate (pH 4.5) was directly immobilized across a CM5 research grade biosensor chip using a standard amine coupling kit according to manufacturer's instructions and procedures at 25 μg/ml. Unreacted moieties on the biosensor surface were blocked with ethanolamine. Modified carboxymethyl dextran surface in flowcell 2 and 4 was used as a reaction surface. Unmodified carboxymethyl dextran without goat anti-mouse IgG in flow cell 1 and 3 was used as the reference surface. For kinetic analysis, rate equations derived from the 1:1 Langmuir binding model were fitted simultaneously to association and dissociation phases of all eight injections (using global fit analysis) with the use of Biaevaluation 4.0.1 software. Purified antibodies or DVD-Ig proteins were diluted in HEPES-buffered saline for capture across goat anti-mouse IgG specific reaction surfaces. Antibodies or DVD-Ig proteins to be captured as a ligand (25 μg/ml) were injected over reaction matrices at a flow rate of 5 μl/minute. The association and dissociation rate constants, kₒₙ (M⁻¹s⁻¹) and koff (s⁻¹) were determined under a continuous flow rate of 25 μl/minute. Rate constants were derived by making kinetic binding measurements at different antigen concentrations ranging from 10-200 nM. The equilibrium dissociation constant (M) of the reaction between antibodies or DVD-Ig proteins and the target antigen was then calculated from the kinetic rate constants by the following formula: KD=koff/kₒₙ. Binding was recorded as a function of time and kinetic rate constants were calculated.

[2] = target: T2, Recombinant Human IL-13; test: cell-based or functional assay
[3] = target: T1, Recombinant Human IL-17; test: SPR (Biacore)
Method: as §1

[4] = target: T1, Recombinant Human IL-17; test: cell-based or functional assay

T2 sequence (P35225 35-146 limits assumed): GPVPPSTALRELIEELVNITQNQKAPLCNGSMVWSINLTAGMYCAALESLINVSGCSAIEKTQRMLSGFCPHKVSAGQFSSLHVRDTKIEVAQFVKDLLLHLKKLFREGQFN

Row | Binder | Kd [1] [nM] | koff [1] [s⁻¹] | kon [1] [M⁻¹ s⁻¹] | IL13 Neutralization Assay IC50 (TARC, A549 cells) [2] [nM] | Kd [3] [nM] | koff [3] [s⁻¹] | kon [3] [M⁻¹ s⁻¹] | IL17 Neutralization Assay IC50 (IL-6, HS27 cells) [4] [nM]
1 | AB397 (antibody, V domains shown, parent antibody; also called AB397VH) VH: EVTLRESGPGLVKPTQTLTLTCTLYGFSLSTSDMGVDWIRQPPGKGLEWLAHIWWDDVKRYNPALKSRLTISKDTSKNQVVLKLTSVDPVDTATYYCARTVSSGYIYYAMDYWGQGTLVTVSS VL: DIQMTQSPSSLSASVGDRVTISCRASQDIRNYLNWYQQKPGKAPKLLIFYTSKLHSGVPSRFSGSGSGTDYTLTISSLQPEDIATYYCQQGLTPPLTFGGGTKVEIKR | 0.13 | 0.00012 | 920000 | 0.033 |  |  |  | 
2 | AB398 (antibody, V domains shown, parent antibody; also called AB398VH) VH: EVQLVQSGAEVKKPGASVKVSCKASGYTFTTYGVSWVRQAPGQGLEWMGEIYPGNYNTYYNEKFRGRVTMTTDTSTSTAYMELRSLRSDDTAVYYCARWRTSYFSDYGYFDYWGQGTTVTVSS VL: DVVMTQSPLSLPVTLGQPASISCRSSQSLVHSHGNTYLHWYQQRPGQSPRLLIYTVSNRFSGVPDRFSGSGSGTDFTLKISRVEAEDVGVYYCSQSTHVPYTFGGGTKVEIKR | 0.045 | 2.8e-05 | 630000 | 0.082 |  |  |  | 
3 | AB399 (antibody, V domains shown, parent antibody; also called AB399VH) VH: EVQLVQSGAEVKKPGASVKVSCKASGYTFTSYWMHWVRQAPGQGLEWIGNINPKGGSNIYNEKFQGRVTMTRDTSISTAYMELSRLRSDDTAVYYCARLDYFGDSFDLWGQGTTVTVSS VL: DIQMTQSPSSLSASVGDRVTITCRASQGIRNYLNWYQQKPGKAPKLLIYYASNLEVGVPSRFSGSGSGTDYTLTISSLQPEDFATYYCQQDNRFPYTFGGGTKVEIKR | 0.019 | 6.4e-05 | 3.4e+06 | 0.043 |  |  |  | 
4 | AB273 (antibody, V domains shown, parent antibody; also called AB273VH) VH: EVQLVQSGAEVKKPGSSVKVSCKASGYTFTDYEIHWVRQAPGQGLEWMGVNDPESGGTFYNQKFDGRVTLTADESTSTAYMELSSLRSEDTAVYYCTRYSKWDSFDGMDYWGQGTTVTVSS VL: DIQMTQSPSSLSASVGDRVTITCRASSGIISYIDWFQQKPGKAPKRLIYATFDLASGVPSRFSGSGSGTDYTLTISSLQPEDFATYYCRQVGSYPETFGQGTKLEIKR |  |  |  |  | < 0.0005 | < 1e-06 | 2e+06 | 0.0198
5 | AB274 (antibody, V domains shown, parent antibody; also called AB274VH) VH: EVQLVQSGAEVKKPGSSVKVSCKASGGSFGGYGIGWVRQAPGQGLEWMGGITPFFGFADYAQKFQGRVTITADESTTTAYMELSGLTSDDTAVYYCARDPNEFWNGYYSTHDFDSWGQGTTVTVSS VL: EIVLTQSPDFQSVTPKEKVTITCRASQDIGSELHWYQQKPDQPPKLLIKYASHSTSGVPSRFSGSGSGTDFTLTINGLEAEDAGTYYCHQTDSLPYTFGPGTKVDIKR |  |  |  |  | 0.0074 | 8.2e-06 | 1.1e+06 | 0.003
6 | AB275 (antibody, V domains shown, parent antibody; also called AB275VH) VH: EVQLVQSGAEVKKPGESVKISCKASGGSFRSYGISWVRQAPGQGLEWMGGITHFFGITDYAQKFQGRVTITADESTTTAYMELSGLTSDDTAVYYCAREPNDFWNGYYDTHDFDSWGQGTTVTVSS VL: EIVLTQSPDFQSVTPKEKVTITCRASQNIGSELHWYQQKPDQSPKLLIKYASHSISGVPSRFSGSGSGTDFTLTINGLEAEDAATYYCHQSDTLPHTFGQGTKVDIKR |  |  |  |  | 0.034 | 6.5e-05 | 1.9e+06 | 0.0052
